Measurements published in PMC6238066, “Versatile Fungal Polyphenol Oxidase with Chlorophenol Bioremediation Potential: Characterization and Protein Engineering” (Applied and Environmental Microbiology, 2018).

Experiments:
Oc1ccc(Cl)cc1O = experiment: spectrophotometric oxidation assay, nonlinear regression; assay type: biochemical, Thermothelomyces thermophilus; settings: 0.1 M sodium phosphate pH 7, 40°C, 440 nm, 0 to 5 mM substrate
From the text: (§1) spectrophotometric oxidation assay, nonlinear regression on TtPPO

purified protein = substrate: COc1ccccc1O; experiment: purified protein; settings: 0.1 M sodium phosphate pH 7, 40°C, 0 to 15 mM substrate
[1] = substrate: COc1cc(C=O)ccc1O; experiment: spectrophotometric oxidation assay, nonlinear regression; assay type: biochemical, Thermothelomyces thermophilus; settings: 0.1 M sodium phosphate pH 7, 40°C, 0 to 5 mM substrate
From the text: as §1

[2] = substrate: Oc1ccc(O)cc1; experiment: as above; assay type: biochemical, Thermothelomyces thermophilus; settings: 0.1 M sodium phosphate pH 7, 40°C, 480 nm, 0 to 70 mM substrate
From the text: as §1

[3] = substrate: Oc1cc(O)c2c(c1)O[C@H](c1ccc(O)c(O)c1)[C@@H](O)C2; experiment: as above; assay type: biochemical, Thermothelomyces thermophilus; settings: 0.1 M sodium phosphate pH 7, 40°C, 440 nm, 0 to 10 mM substrate (Km lies above tested range)
From the text: as §1

[4] = substrate: Oc1ccccc1O; experiment: as above; assay type: biochemical, Thermothelomyces thermophilus; settings: 0.1 M sodium phosphate pH 7, 40°C, 0 to 60 mM substrate
From the text: as §1

[5] = substrate: N[C@@H](Cc1ccc(O)c(O)c1)C(=O)O; experiment: as above; assay type: biochemical, Thermothelomyces thermophilus; settings: 0.1 M sodium phosphate pH 7, 40°C, 475 nm, 0 to 7 mM substrate
From the text: as §1

TtPPO (Thermothelomyces thermophilus ATCC 42464)
Km (Oc1ccc(Cl)cc1O): 1.6 (0.1) mM | kcat (Oc1ccc(Cl)cc1O): 5.69 s⁻¹ | kcat/Km (Oc1ccc(Cl)cc1O): 3490 M⁻¹ s⁻¹

B1: TtPPO (Thermothelomyces thermophilus ATCC 42464) (protein)
chain: RCSSDAPPPAPVGDDLTEPKELTDLFEKAKKAVIDRLHEDEKALRARGEAPRCTADKLIFRREYGSLSKDERLAYVNAVKCLQSKPPRTPASVAPGARSRFDDFVVVHIQQTLDIHYSGIFQAWHRWFVYQYEKALRDECGYTGYQPYWDWPKYASAPQDSPLFNGDPYSLGGNGEYVPHDGPVIVPPEGVSGGNISLPAGVGGGFVRTGPFANMTVNLGPVGGLADTAPGPQGGLGYNPRGLKRDLGGAMNTRYANYTTVLRLLTQPDVDAFRTVSEGVPYTVEIGPHGGIHYTIGGDPGGDLFTSPGDPAFWVHHAQMDRVWATWQALGLLPPADGGDPDPARRYTDLGKGDYAHRTWQNSPPSPFAELSDVIDMGYAAPSTTIGAVMSTTEGELCYFYL
notes: secreted by Pichia pastoris X-33, glycosylated; IMAC
Km (purified protein): 4.2 (0.6) mM | kcat (purified protein): 2.91 s⁻¹ | kcat/Km (purified protein): 690 M⁻¹ s⁻¹ | Km [1]: 2.0 (0.1) mM | kcat [1]: 1.92 s⁻¹ | kcat/Km [1]: 987 M⁻¹ s⁻¹ | Km [2]: 54.4 (5.5) mM | kcat [2]: 1.69 s⁻¹ | kcat/Km [2]: 31.7 M⁻¹ s⁻¹ | Km [3]: 31.0 (12.9) mM | kcat [3]: 40.5 s⁻¹ | kcat/Km [3]: 1300 M⁻¹ s⁻¹ | Km [4]: 27.0 (2.8) mM | kcat [4]: 2.19 s⁻¹ | kcat/Km [4]: 81.7 M⁻¹ s⁻¹ | Km [5]: 2.2 (0.6) mM | kcat [5]: 0.108 s⁻¹ | kcat/Km [5]: 50 M⁻¹ s⁻¹
